T1: PolpTN2delta311-923 (Thermococcus nautilus (plasmid pTN2), UniProt D6MY06 1-310)
T1 sequence: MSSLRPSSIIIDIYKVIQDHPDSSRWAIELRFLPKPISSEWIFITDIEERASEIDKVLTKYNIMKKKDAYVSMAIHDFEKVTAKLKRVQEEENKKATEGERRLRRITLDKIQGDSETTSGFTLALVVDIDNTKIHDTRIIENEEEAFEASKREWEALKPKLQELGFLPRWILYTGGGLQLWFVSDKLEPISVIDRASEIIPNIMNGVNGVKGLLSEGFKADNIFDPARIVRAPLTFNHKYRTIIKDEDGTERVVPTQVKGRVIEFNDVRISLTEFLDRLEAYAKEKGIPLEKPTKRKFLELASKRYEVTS

B1: 30 DNA (ssDNA)
DNA: AGAGGGTTCAAAAAATGGTTTCACCCCAAA
B2: 30 RT (ssRNA)
RNA: AGAGGGUUCAAAAAAUGGUUUCACCCCAAA

Molecular target: T1, PolpTN2delta311-923
Assay: EMSA; 10 mM Mg2+; EMSA: 50 mM Tris-HCl pH 8, 20 mM KCl, 10 mM MgCl2, 7.5 nM probe, 30 min at 65 C; 10% native PAGE in TBE
Conditions: protein: recombinant; tags: His-tag (pET30, NdeI/XhoI); label: 32P; single strand

| Binder | binding result |
| --- | --- |
| B1 | binds |
| B2 | binds |
